# Laboratory results as given in IntAct's records for PubMed 16996049.
# B1: Partitioning defective protein 6 (Caenorhabditis elegans), Q9NAN2 (parent)
# chain: MSYNGSYHQNHHSTLQVKSKFDSEWRRFSIPMHSASGVSYDGFRSLVEKLHHLESVQFTLCYNSTGGDLLPITNDDNLRKSFESARPLLRLLIQRRGESWEEKYGYGTDSDKRWKGISSLMAQKPPKRSYSISNPEDFRQVSAIIDVDIVPEAHRRVRLCKHGQERPLGFYIRDGTSVRVTERGVVKVSGIFISRLVDGGLAESTGLLGVNDEVLEVNGIEVLGKTLDQVTDMMVANAHNLIITVKPANQRNTLSRGPSQQGTPNASEMSAATAAATGGIQRPMKMNGSSDGSYHPKQHDANDSDSGED
# Variants of: B1
# Settings: with cdc42_caeel cdc-42, Q05062
# Sequence of cdc42_caeel cdc-42, Q05062 (Q05062 whole entry): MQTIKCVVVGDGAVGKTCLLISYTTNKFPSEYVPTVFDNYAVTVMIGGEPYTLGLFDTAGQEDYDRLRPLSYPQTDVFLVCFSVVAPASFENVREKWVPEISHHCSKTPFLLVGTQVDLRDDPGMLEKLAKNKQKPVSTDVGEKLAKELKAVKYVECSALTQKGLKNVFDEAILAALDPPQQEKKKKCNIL
row,effect of a mutation on the interaction,Variant
1,disrupting interaction,P135A;D137A;F138A;R139A
2,disrupting interaction,V141A;S142A;I144A;I145A
